Residue numbers refer to the chain shown, from its start. Where two headings read alike, the source gives them in different places.
B1: 20C8.3B8: murine anti-human IGF-1R monoclonal antibody from hybridoma; VH SEQ ID NO:43, VL SEQ ID NO:103 (antibody, V domains shown)
VH: DVQLQESGPDLVKPSQSLSLTCTVTGYSITSGYSWHWIRQFPGNKLEWMGYIHYSGGTNYNPSLKSRISITRDTSKNQFFLQLNSVTTEDTATYYCARSGYGYRSAYYFDYWGQGTTVTVSS
VL: DIVLTQSPASLAVSLGQRATISCRASKSVSTSAYSYMHWYQQKPGQPPKLLIYLASNLESGVPARFSGSGSGTDFTLNIHPVEEEDAATYYCQHSRELPYTFGGGTKLEIK
modifications: Antibody variable heavy chain sequence; Antibody variable light chain sequence
B2: Fab M12-E01: human anti-human IGF-1R Fab from phage display library; VH SEQ ID NO:4, VL SEQ ID NO:68 (antibody, V domains shown)
VH: EVQLLESGGGLVQPGGSLRLSCAASGFTFSPYSMLWVRQAPGKGLEWVSSIGSSGGSTRYADSVKGRFTISRDNSKNTLYLQMNSLRAEDTAMYYCARVRGILHYDILIGRNLYYYYMDVWGKGTTVTVSS
VL: QYELTQPPSVSEAPRQRVTISCSGSSSNIGNNAINWYQQLPGKPPKLLIYYDDLLPSGVSDRFSGSKSGTSGSLAISGLQSEDEADYYCAAWDDNLNGVIFGGGTKLTVL
modifications: Antibody variable heavy chain sequence; Antibody variable light chain sequence
B3: 20D8.24B11: murine anti-human IGF-1R monoclonal antibody from hybridoma; VH SEQ ID NO:53, VL SEQ ID NO:103 (antibody, V domains shown)
VH: B1 VH with V118L
VL: B1 VL
modifications: Antibody variable heavy chain sequence; Antibody variable light chain sequence

How the values were obtained:
Calu-6 = experiment: IGF driven tumor cell growth, CELL TITER-GLO, Calu-6; format: cell-based, human; details: lung cancer cells
Description: (§1) NCI-H23, Calu-6, Colo-205, Panc-1, BxPC-3 (ATCC) tumor lines were purchased from ATCC. Cell lines were grown in complete growth medium containing RPMI-1640 (ATCC), 10% fetal bovine serum (Irvine Scientific Inc.) and 50 μg/ml of Gentamycin (Gibco, Invitrogen). Trypsin-EDTA solution (Sigma) was used for removal of adherent cells from culture vessels. Phosphate buffered saline, pH 7.2, was from MediaTech Inc The 96-well clear bottom plates for luminescent assay was purchased from Wallac Inc.
(§2) Cells grown to 80% monolayers were, trypsinized, washed, resuspended and plated into 96-well plates in 200 μl of 2% growth medium at 8×10^3 cells/well for NCI-H23 and Colo-205 cells; and 5×10^3 cells/well for Calu-6, Panc-1 and BxPC-3 cells. After 24 hours, the culture medium was replaced with 100 μl of serum free medium (SFM), and 50 μl of serially diluted antibodies at 4× concentration was added. […] All treatments were done in triplicates. Cell growth was measured using the CELL TITER-GLO™ Luminescent Cell Viability Assay (Promega, Madison, Wis.). The 1:1 mixture of reagent and SFM was added at 200 μl/well. Luminescence was detected on Wallac (Boston, Mass.) plate reader.
(§3) The ability of the selected murine antibodies to inhibit IGF/IGF-1R dependent in vitro growth of several human tumor lines (Lung, H-23, Calu-6; Pancreas, BxPc-3, Panc-1, MiaPaCa and Colon Colo205) was measured by a proliferation assay described in Example 13.

[1] = target: T1, IGF-1R expressed on MCF-7 cells (Homo sapiens, UniProt P08069); experiment: Flow cytometry binding to wild type IGF-1R on MCF-7 tumor cells
T1 construct: wild type IGF-1R expressed on MCF-7 tumor cells; endogenous in cells; host or cells: MCF-7
Description: The ability of Fabs to bind to the wild type IGF-1R was determined by flowcytometry using MCF-7 tumor cell line.
MCF-7 cells (Human Breast Adenocarcinoma from NCI) were split 24 hours prior to the setup of the assay to obtain 70% confluent monolayer. Routinely, MCF-7 cell line was maintained within 20 passages. Cells were lifted with cell dissociation buffer (Gibco catalog #13151-014), counted, washed and adjusted to 1×10^6 cells/ml and one ml of cells were then added to each tube (12×75 mm tube Falcon catalog# 352054). Cells were pelleted and supernatant removed by centrifugation at 1200 rpm for 5 min and 100 μl of diluted antibodies were then added to the cell pellet. Purified Fabs were tested at a starting concentration of either 210 or 60 μg/ml with 1:3 dilutions in FACS buffer, down to 0.001 μg/ml. FACS buffer used throughout the assay was PBS (without Ca++/Mg++) containing 1% BSA (Sigma catalog# A-7906; Sigma-Aldrich Corp. (St. Louis, Mo., USA)) and 0.1% Sodium Azide (Sigma catalog #S2002). As a positive control IR3 a murine antibody (Ab-1; Calbiochem #GR11L) was used. Samples were allowed to incubate on ice for 1 hour and 15 minutes then were washed with 2 ml FACS buffer and centrifuged at 1200 rpm for 5 minutes at 4° C. The supernatant was aspirated and 100 μl of the secondary detection antibody was added to each corresponding tube in FACS buffer. Samples were then incubated for 30 minutes on ice, in the dark. Cells were washed as described above, then, re-suspended in […] FACS buffer per tube/sample.
Cells were stained for live cell determination with Propidium Iodide staining solution (PI for dead cell exclusion; BD Pharmingen catalog# 51-66211E or 556463; use at 1:500 final in FACS buffer). […]
Once samples have been run and geometric means determined, antibody concentration (X axis) vs. geometric mean (Y axis) was graphed to the log 10, using Graphpad Prism (Prism Graph) graphing program. […]
The binding activity of human antibodies to wild type IGF-1R expressed on tumor cells was determined by flow cytometry. […]

MCF-7 = experiment: Ki67 inhibition in MCF-7 cells; format: cell-based, human; details: breast cancer cell
NCI-H23 = experiment: IGF driven tumor cell growth, CELL TITER-GLO, H-23; format: cell-based, human; details: for Proliferation of Tumor Cells H-23: lung cancer cells
Description: as §1, §2, §3
A commercially available anti-IGF-1R antibody (IR3) was used as a positive control. The mouse IgG (anti-IDectin, IgG1) and human gamma 4 version of IDEC-152 antibody of irrelevant specificity were used as isotype matched controls for the experiments. […]

[2] = murine monoclonal antibodies, read-out: Binding (EC50nM) Tumor MCF-7

| Molecule | Proliferation of Tumor Cells Calu-6 (Calu-6) | EC50 [1, 2] [nM] | Proliferation of Tumor Cells MCF-7* (Ki67 Inhibit.) (MCF-7) | inhibition of IGF-1 and IGF-2 driven cell proliferation in H-23 (NCI-H23; NCI-H23 lung tumor cell line) | Proliferation of Tumor Cells H-23 (NCI-H23) | EC50 ([1]; purified Fabs, read-out: FACS Binding MCF-7 EC50nM) [nM] |
| --- | --- | --- | --- | --- | --- | --- |
| B1 | +++ (>30%@0.1 μg/ml) | 1.23 | +++ (>50%@0.1 μg/ml) | showed inhibition | +++ (>30%@0.1 μg/ml) |  |
| B2 |  |  |  |  |  | 7.4 |
| B3 | +++ (>30%@0.1 μg/ml) | 1.3 | ++ (>50%@1 μg/ml) |  | ++++ (>30%@0.01 μg/ml) |  |
